Broadly, the stoichiometry N is a count of units in the complex or per binding partner.

Holding throughout (assay): SEC + other: dynamic light scattering
Experiment [1] concerns the target G. stearothermophilus GerD Q122A (Geobacillus stearothermophilus).
Experiment [2] addresses G. stearothermophilus GerD R148A (Geobacillus stearothermophilus).
Experiment [3] addresses G. stearothermophilus GerD M111P (Geobacillus stearothermophilus).
For experiment [4], the target named is G. stearothermophilus GerD F86P (Geobacillus stearothermophilus).
In experiment [5] the target is G. stearothermophilus GerD ΔH01-02 (Geobacillus stearothermophilus).
In experiment [6] the target is G. stearothermophilus GerD D118A (Geobacillus stearothermophilus).
Experiment [7] concerns the target G. stearothermophilus GerD ΔH5-8 (Geobacillus stearothermophilus).
The target of experiment [8] is G. stearothermophilus GerD ΔH6-8 (Geobacillus stearothermophilus).
Experiment [9] deals with G. stearothermophilus GerD M138P (Geobacillus stearothermophilus).
Experiment [10] concerns the target G. stearothermophilus GerD M36P (Geobacillus stearothermophilus).

For “G. stearothermophilus GerD Q122A (from UniProt A0ACH1E844 1-195) (natural protein)”, the stoichiometry N in experiment [1] was 3.

For “G. stearothermophilus GerD R148A (from UniProt A0ACH1E844 1-195) (natural protein)”, the stoichiometry N in [2] was 3.

For “G. stearothermophilus GerD M111P (from UniProt A0ACH1E844 1-195) (natural protein)”, in experiment [3], the stoichiometry N came to 3.

For the substance “G. stearothermophilus GerD F86P (from UniProt A0ACH1E844 1-195) (natural protein)”, in [4], the stoichiometry N turned out to be 3.

As to “G. stearothermophilus GerD ΔH01-02 (from UniProt A0ACH1E844 60-180) (domain or fragment)”, the stoichiometry N in experiment [5] stood at 3.

With “G. stearothermophilus GerD D118A (from UniProt A0ACH1E844 1-195) (natural protein)”, the stoichiometry N in experiment [6] is 3.

Take “G. stearothermophilus GerD ΔH5-8 (from UniProt A0ACH1E844 1-120) (domain or fragment)”: the stoichiometry N in [7] came to 3.

For “G. stearothermophilus GerD ΔH6-8 (from UniProt A0ACH1E844 1-133) (domain or fragment)”, the stoichiometry N in [8] turned out to be 3.

In the case of “G. stearothermophilus GerD M138P (from UniProt A0ACH1E844 1-195) (natural protein)”, the stoichiometry N in experiment [9] turned out to be 3.

Regarding “G. stearothermophilus GerD M36P (from UniProt A0ACH1E844 1-195) (natural protein)”, in [10], the stoichiometry N is 3.
